Data published in patent US20170101454A1 (Novo Nordisk, published 2017).
Starred links: 1 amine or outer side, 2 acyl side, 3 side chain; linkers in the order of their positions; H or OH if unused. Non-standard residues stand in square brackets, D forms with d. Groups on a side chain read outwards from the residue. No end group written: not given here. *: point of attachment. C18 diacid = O=C(O)CCCCCCCCCCCCCCCCC(=O)*; γGlu = O=C(O)[C@H](CCC(=O)[*:2])N[*:1]; Ac4c = NC1(C(=O)O)CCC1; AEEA = NCCOCCOCC(=O)O; Aib = CC(C)(N)C(=O)O

B1: N^ε28-[(4S)-4-carboxy-4-[[(4S)-4-carboxy-4-[[2-[2-[2-[[2-[2-[2-[[(4S)-4-carboxy-4-(17-carboxyheptadecanoylamino)butanoyl]amino]ethoxy]ethoxy]acetyl]amino]ethoxy … (peptide)
peptide: H[Aib]QGTFTSDYSKYLDLRRARDFVAWLIK([γGlu-γGlu-AEEA-AEEA-γGlu-C18 diacid])T-NH2
modifications: N-terminus assumed
SMILES: CC[C@H](C)[C@H](NC(=O)[C@H](CC(C)C)NC(=O)[C@H](Cc1c[nH]c2ccccc12)NC(=O)[C@H](C)NC(=O)[C@@H](NC(=O)[C@H](Cc1ccccc1)NC(=O)[C@H](CC(=O)O)NC(=O)[C@H](CCCNC(=N)N)NC(=O)[C@H](C)NC(=O)[C@H](CCCNC(=N)N)NC(=O)[C@H](CCCNC(=N)N)NC(=O)[C@H](CC(C)C)NC(=O)[C@H](CC(=O)O)NC(=O)[C@H](CC(C)C)NC(=O)[C@H](Cc1ccc(O)cc1)NC(=O)[C@H](CCCCN)NC(=O)[C@H](CO)NC(=O)[C@H](Cc1ccc(O)cc1)NC(=O)[C@H](CC(=O)O)NC(=O)[C@H](CO)NC(=O)[C@@H](NC(=O)[C@H](Cc1ccccc1)NC(=O)[C@@H](NC(=O)CNC(=O)[C@H](CCC(N)=O)NC(=O)C(C)(C)NC(=O)[C@@H](N)Cc1c[nH]cn1)[C@@H](C)O)[C@@H](C)O)C(C)C)C(=O)N[C@@H](CCCCNC(=O)CC[C@H](NC(=O)CC[C@H](NC(=O)COCCOCCNC(=O)COCCOCCNC(=O)CC[C@H](NC(=O)CCCCCCCCCCCCCCCCC(=O)O)C(=O)O)C(=O)O)C(=O)O)C(=O)N[C@H](C(N)=O)[C@@H](C)O
notes: also called Chem. 33; Chem 33
B2: N^ε28-[(4S)-4-carboxy-4-[[(4S)-4-carboxy-4-[[2-[2-[2-[[2-[2-[2-[[(4S)-4-carboxy-4-[[(4S)-4-carboxy-4-(17-carboxyheptadecanoylamino)butanoyl]amino]butanoyl]amino … (peptide)
peptide: H[Aib]QGTFTSDLSKYLESRRAREFVQWLIK([γGlu-γGlu-AEEA-AEEA-γGlu-γGlu-C18 diacid])T-NH2
modifications: N-terminus assumed
SMILES: CC[C@H](C)[C@H](NC(=O)[C@H](CC(C)C)NC(=O)[C@H](Cc1c[nH]c2ccccc12)NC(=O)[C@H](CCC(N)=O)NC(=O)[C@@H](NC(=O)[C@H](Cc1ccccc1)NC(=O)[C@H](CCC(=O)O)NC(=O)[C@H](CCCNC(=N)N)NC(=O)[C@H](C)NC(=O)[C@H](CCCNC(=N)N)NC(=O)[C@H](CCCNC(=N)N)NC(=O)[C@H](CO)NC(=O)[C@H](CCC(=O)O)NC(=O)[C@H](CC(C)C)NC(=O)[C@H](Cc1ccc(O)cc1)NC(=O)[C@H](CCCCN)NC(=O)[C@H](CO)NC(=O)[C@H](CC(C)C)NC(=O)[C@H](CC(=O)O)NC(=O)[C@H](CO)NC(=O)[C@@H](NC(=O)[C@H](Cc1ccccc1)NC(=O)[C@@H](NC(=O)CNC(=O)[C@H](CCC(N)=O)NC(=O)C(C)(C)NC(=O)[C@@H](N)Cc1c[nH]cn1)[C@@H](C)O)[C@@H](C)O)C(C)C)C(=O)N[C@@H](CCCCNC(=O)CC[C@H](NC(=O)CC[C@H](NC(=O)COCCOCCNC(=O)COCCOCCNC(=O)CC[C@H](NC(=O)CC[C@H](NC(=O)CCCCCCCCCCCCCCCCC(=O)O)C(=O)O)C(=O)O)C(=O)O)C(=O)O)C(=O)N[C@H](C(N)=O)[C@@H](C)O
notes: also called Chem. 25; Chem 25
B3: N^ε28-[(4S)-4-carboxy-4-[[(4S)-4-carboxy-4-[[2-[2-[2-[[2-[2-[2-[[(4S)-4-carboxy-4-(17-carboxyheptadecanoylamino)butanoyl]amino]ethoxy]ethoxy]acetyl]amino]ethoxy … (peptide)
peptide: H[Aib]QGTFTSDYSKYLESRRAQDFVAWLIK([γGlu-γGlu-AEEA-AEEA-γGlu-C18 diacid])T-NH2
modifications: N-terminus assumed
SMILES: CC[C@H](C)[C@H](NC(=O)[C@H](CC(C)C)NC(=O)[C@H](Cc1c[nH]c2ccccc12)NC(=O)[C@H](C)NC(=O)[C@@H](NC(=O)[C@H](Cc1ccccc1)NC(=O)[C@H](CC(=O)O)NC(=O)[C@H](CCC(N)=O)NC(=O)[C@H](C)NC(=O)[C@H](CCCNC(=N)N)NC(=O)[C@H](CCCNC(=N)N)NC(=O)[C@H](CO)NC(=O)[C@H](CCC(=O)O)NC(=O)[C@H](CC(C)C)NC(=O)[C@H](Cc1ccc(O)cc1)NC(=O)[C@H](CCCCN)NC(=O)[C@H](CO)NC(=O)[C@H](Cc1ccc(O)cc1)NC(=O)[C@H](CC(=O)O)NC(=O)[C@H](CO)NC(=O)[C@@H](NC(=O)[C@H](Cc1ccccc1)NC(=O)[C@@H](NC(=O)CNC(=O)[C@H](CCC(N)=O)NC(=O)C(C)(C)NC(=O)[C@@H](N)Cc1c[nH]cn1)[C@@H](C)O)[C@@H](C)O)C(C)C)C(=O)N[C@@H](CCCCNC(=O)CC[C@H](NC(=O)CC[C@H](NC(=O)COCCOCCNC(=O)COCCOCCNC(=O)CC[C@H](NC(=O)CCCCCCCCCCCCCCCCC(=O)O)C(=O)O)C(=O)O)C(=O)O)C(=O)N[C@H](C(N)=O)[C@@H](C)O
notes: also called Chem. 34; Chem 34
B4: N^ε29-[(4S)-4-carboxy-4-[[(4S)-4-carboxy-4-[[2-[2-[2-[[2-[2-[2-[[(4S)-4-carboxy-4-(17-carboxyheptadecanoylamino)butanoyl]amino]ethoxy]ethoxy]acetyl]amino]ethoxy … (peptide)
peptide: H[Aib]QGTFTSDLSKYLDARRARDFVQWLINK([γGlu-γGlu-AEEA-AEEA-γGlu-C18 diacid])-NH2
modifications: N-terminus assumed
SMILES: CC[C@H](C)[C@H](NC(=O)[C@H](CC(C)C)NC(=O)[C@H](Cc1c[nH]c2ccccc12)NC(=O)[C@H](CCC(N)=O)NC(=O)[C@@H](NC(=O)[C@H](Cc1ccccc1)NC(=O)[C@H](CC(=O)O)NC(=O)[C@H](CCCNC(=N)N)NC(=O)[C@H](C)NC(=O)[C@H](CCCNC(=N)N)NC(=O)[C@H](CCCNC(=N)N)NC(=O)[C@H](C)NC(=O)[C@H](CC(=O)O)NC(=O)[C@H](CC(C)C)NC(=O)[C@H](Cc1ccc(O)cc1)NC(=O)[C@H](CCCCN)NC(=O)[C@H](CO)NC(=O)[C@H](CC(C)C)NC(=O)[C@H](CC(=O)O)NC(=O)[C@H](CO)NC(=O)[C@@H](NC(=O)[C@H](Cc1ccccc1)NC(=O)[C@@H](NC(=O)CNC(=O)[C@H](CCC(N)=O)NC(=O)C(C)(C)NC(=O)[C@@H](N)Cc1c[nH]cn1)[C@@H](C)O)[C@@H](C)O)C(C)C)C(=O)N[C@@H](CC(N)=O)C(=O)N[C@@H](CCCCNC(=O)CC[C@H](NC(=O)CC[C@H](NC(=O)COCCOCCNC(=O)COCCOCCNC(=O)CC[C@H](NC(=O)CCCCCCCCCCCCCCCCC(=O)O)C(=O)O)C(=O)O)C(=O)O)C(N)=O
notes: also called Chem. 20; Chem 20
B5: N^ε28-[(4S)-4-carboxy-4-[[(4S)-4-carboxy-4-[[2-[2-[2-[[2-[2-[2-[[(4S)-4-carboxy-4-[[(4S)-4-carboxy-4-(17-carboxyheptadecanoylamino)butanoyl]amino]butanoyl]amino … (peptide)
peptide: H[Ac4c]QGTFTSDISKYLESRRAREFVQWLIK([γGlu-γGlu-AEEA-AEEA-γGlu-γGlu-C18 diacid])T-NH2
modifications: N-terminus assumed
SMILES: CC[C@H](C)[C@H](NC(=O)[C@H](CC(=O)O)NC(=O)[C@H](CO)NC(=O)[C@@H](NC(=O)[C@H](Cc1ccccc1)NC(=O)[C@@H](NC(=O)CNC(=O)[C@H](CCC(N)=O)NC(=O)C1(NC(=O)[C@@H](N)Cc2c[nH]cn2)CCC1)[C@@H](C)O)[C@@H](C)O)C(=O)N[C@@H](CO)C(=O)N[C@@H](CCCCN)C(=O)N[C@@H](Cc1ccc(O)cc1)C(=O)N[C@@H](CC(C)C)C(=O)N[C@@H](CCC(=O)O)C(=O)N[C@@H](CO)C(=O)N[C@@H](CCCNC(=N)N)C(=O)N[C@@H](CCCNC(=N)N)C(=O)N[C@@H](C)C(=O)N[C@@H](CCCNC(=N)N)C(=O)N[C@@H](CCC(=O)O)C(=O)N[C@@H](Cc1ccccc1)C(=O)N[C@H](C(=O)N[C@@H](CCC(N)=O)C(=O)N[C@@H](Cc1c[nH]c2ccccc12)C(=O)N[C@@H](CC(C)C)C(=O)N[C@H](C(=O)N[C@@H](CCCCNC(=O)CC[C@H](NC(=O)CC[C@H](NC(=O)COCCOCCNC(=O)COCCOCCNC(=O)CC[C@H](NC(=O)CC[C@H](NC(=O)CCCCCCCCCCCCCCCCC(=O)O)C(=O)O)C(=O)O)C(=O)O)C(=O)O)C(=O)N[C@H](C(N)=O)[C@@H](C)O)[C@@H](C)CC)C(C)C
notes: also called Chem. 26; Chem 26
B6: N^ε28-[(4S)-4-carboxy-4-[[(4S)-4-carboxy-4-[[2-[2-[2-[[2-[2-[2-[[(4S)-4-carboxy-4-[[(4S)-4-carboxy-4-(17-carboxyheptadecanoylamino)butanoyl]amino]butanoyl]amino … (peptide)
peptide: H[Ac4c]QGTFTSDLSRYLESRRAREFVQWLIK([γGlu-γGlu-AEEA-AEEA-γGlu-γGlu-C18 diacid])T-NH2
modifications: N-terminus assumed
SMILES: CC[C@H](C)[C@H](NC(=O)[C@H](CC(C)C)NC(=O)[C@H](Cc1c[nH]c2ccccc12)NC(=O)[C@H](CCC(N)=O)NC(=O)[C@@H](NC(=O)[C@H](Cc1ccccc1)NC(=O)[C@H](CCC(=O)O)NC(=O)[C@H](CCCNC(=N)N)NC(=O)[C@H](C)NC(=O)[C@H](CCCNC(=N)N)NC(=O)[C@H](CCCNC(=N)N)NC(=O)[C@H](CO)NC(=O)[C@H](CCC(=O)O)NC(=O)[C@H](CC(C)C)NC(=O)[C@H](Cc1ccc(O)cc1)NC(=O)[C@H](CCCNC(=N)N)NC(=O)[C@H](CO)NC(=O)[C@H](CC(C)C)NC(=O)[C@H](CC(=O)O)NC(=O)[C@H](CO)NC(=O)[C@@H](NC(=O)[C@H](Cc1ccccc1)NC(=O)[C@@H](NC(=O)CNC(=O)[C@H](CCC(N)=O)NC(=O)C1(NC(=O)[C@@H](N)Cc2c[nH]cn2)CCC1)[C@@H](C)O)[C@@H](C)O)C(C)C)C(=O)N[C@@H](CCCCNC(=O)CC[C@H](NC(=O)CC[C@H](NC(=O)COCCOCCNC(=O)COCCOCCNC(=O)CC[C@H](NC(=O)CC[C@H](NC(=O)CCCCCCCCCCCCCCCCC(=O)O)C(=O)O)C(=O)O)C(=O)O)C(=O)O)C(=O)N[C@H](C(N)=O)[C@@H](C)O
notes: also called Chem. 17; Chem 17

Target: T1, human glucagon receptor (human, UniProt P47871 26-477)
Test: cell-based or functional assay

T1 sequence (P47871 26-477): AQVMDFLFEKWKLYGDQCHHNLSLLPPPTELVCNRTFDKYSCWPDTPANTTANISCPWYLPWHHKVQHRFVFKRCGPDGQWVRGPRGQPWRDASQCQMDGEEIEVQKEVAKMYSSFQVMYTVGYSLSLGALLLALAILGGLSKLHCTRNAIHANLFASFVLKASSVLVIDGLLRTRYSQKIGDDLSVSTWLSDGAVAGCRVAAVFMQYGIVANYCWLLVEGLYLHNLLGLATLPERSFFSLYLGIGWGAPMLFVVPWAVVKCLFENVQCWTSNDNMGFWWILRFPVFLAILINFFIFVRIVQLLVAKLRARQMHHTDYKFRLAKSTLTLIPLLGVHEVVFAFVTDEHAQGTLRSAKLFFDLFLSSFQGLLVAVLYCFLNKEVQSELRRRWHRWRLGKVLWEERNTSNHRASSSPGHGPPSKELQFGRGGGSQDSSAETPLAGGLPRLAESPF

GlucagonR EC50 (pM), [Assay (I)(b)], CRE luciferase reporter, BHK cells	Binder
8 pM	B1
9 pM	H[Aib]QGTFTSDLSRYLDARRARDFVQWLIK([γGlu-γGlu-γGlu-C18 diacid])T-NH2 (also called Chem. 14; Chem 14)
52 pM	B2
66 pM	B3
70 pM	B4
42 pM	B5
23 pM	H[Ac4c]QGTFTSDLSKYLESRRAREFVQWLIK([γGlu-γGlu-AEEA-AEEA-γGlu-γGlu-C18 diacid])T-NH2 (also called Chem. 13; Chem 13)
45 pM	B6

Target: T2, human GLP-1 receptor (human, UniProt P43220 24-463)
Test: cell-based or functional assay

GLP-1R EC50 (pM) [Assay (I)(a)], CRE luciferase reporter, BHK cells	Binder
7 pM	B1
2 pM	H[Aib]QGTFTSDLSRYLDARRARDFVQWLIK([γGlu-γGlu-γGlu-C18 diacid])T-NH2 (also called Chem. 14; Chem 14)
2 pM	B2
3 pM	B3
4 pM	B4
2 pM	B5
4 pM	H[Ac4c]QGTFTSDLSKYLESRRAREFVQWLIK([γGlu-γGlu-AEEA-AEEA-γGlu-γGlu-C18 diacid])T-NH2 (also called Chem. 13; Chem 13)
4 pM	B6

Target: T1, human glucagon receptor
Test: displacement of [125I]-glucagon from BHK membranes with human glucagon receptor, SPA, no serum albumin

IC50	Binder
6.9 nM	B1
6.4 nM	H[Aib]QGTFTSDLSRYLDARRARDFVQWLIK([γGlu-γGlu-γGlu-C18 diacid])T-NH2 (also called Chem. 14; Chem 14)
11.2 nM	B2
7 nM	B3
13.6 nM	B4
10.1 nM	B5
1.8 nM	H[Ac4c]QGTFTSDLSKYLESRRAREFVQWLIK([γGlu-γGlu-AEEA-AEEA-γGlu-γGlu-C18 diacid])T-NH2 (also called Chem. 13; Chem 13)
4.3 nM	B6

Target: T2, human GLP-1 receptor
Test: displacement of [125I]-GLP-1-(7-36)NH2 from BHK membranes with human GLP-1R, SPA, no serum albumin

IC50	Binder
2.3 nM	B1
0.1 nM	H[Aib]QGTFTSDLSRYLDARRARDFVQWLIK([γGlu-γGlu-γGlu-C18 diacid])T-NH2 (also called Chem. 14; Chem 14)
0.1 nM	B2
2.2 nM	B3
0.1 nM	B4
0.4 nM	B5
0.1 nM	H[Ac4c]QGTFTSDLSKYLESRRAREFVQWLIK([γGlu-γGlu-AEEA-AEEA-γGlu-γGlu-C18 diacid])T-NH2 (also called Chem. 13; Chem 13)
0.1 nM	B6
